Patent publication US20260263521A1, “ANTI-CD200R1 ANTIBODY AND USE THEREOF” (AIMED BIO INC., priority 2023, published 2026)
Substitutions are numbered along the chain they refer to.

B1: P001009: phage display anti-CD200R1 clone; VH SEQ ID NO: 79, VL SEQ ID NO: 94 (antibody, V domains shown)
VH: EVQLLESGGGLVQPGGSLRLSCAASGFTFSSYDMSWVRQAPGKGLEWVSWISHGGGSIYYADSVKGRFTISRDNSKNTLYLQMNSLRAEDTAVYYCARDAPAYSAPLFDYWGQGTLVTVSS
VL: QSVLTQPPSASGTPGQRVTISCSGSSSNIGNNAVNWYQQLPGTAPKLLIYYDSNRPSGVPDRFSGSKSGTSASLAISGLRSEDEADYYCAAWDDSLSGYVFGGGTKLTVL
B2: P001009v1: P001009 variant, LC S52 and LC S94 substituted with K and R; VH SEQ ID NO: 79 (antibody, V domains shown)
VH: B1 VH
VL: B1 VL with S53K, S95R

Legend:
[1] = target: T1, CD200R1 on Jurkat-CD200R1 cells (Homo sapiens, UniProt Q8TD46); assay: Cell binding assay (flow cytometry), Jurkat-CD200R1 cells; format: cell-based
T1 construct: host or cells: Jurkat
T1 sequence (Q8TD46 25-348): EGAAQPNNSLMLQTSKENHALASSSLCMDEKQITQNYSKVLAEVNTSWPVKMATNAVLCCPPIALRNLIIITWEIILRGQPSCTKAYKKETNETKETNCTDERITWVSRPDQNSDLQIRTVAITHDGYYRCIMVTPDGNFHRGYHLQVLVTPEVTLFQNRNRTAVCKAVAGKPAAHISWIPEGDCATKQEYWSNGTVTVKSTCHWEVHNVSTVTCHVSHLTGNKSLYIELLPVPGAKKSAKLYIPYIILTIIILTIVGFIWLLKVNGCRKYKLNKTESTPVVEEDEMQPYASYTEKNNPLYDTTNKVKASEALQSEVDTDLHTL
Procedure: (§1) The binding ability of the antibodies identified using unique multifaceted antibody discovery technology was identified in HH (CRL-2105) cells, which endogenously express CD200R1, and Jurkat-CD200R1 cells (Source: DiscoverX), which were generated by intranuclear injection of CD200R1 cDNA.
(§2) HH and Jurkat-CD200R1 cells were maintained in RPMI 1640 medium supplemented with 10% heat-inactivated FBS and 1% Penicillin/Streptomycin (P/S). The cells were washed by centrifugation at 130 g for 5 minutes. The cells were seeded onto 96-well round-bottom plates (SPL, #34296) at a density of 1×10^5 cells/well in Flow cytometry staining buffer (Invitrogen, #00-4222-26) or FACS buffer. The cells were treated with all 16 substances and the positive control LY3454738 (US 2020/0087395, I-4P, at Eli Lilly) a concentration of 500 nM in the IgG1 form. After incubation for 1 hour at 4° C., the cells were treated with Alexa-647 Goat anti-human IgG (H+L) cross-adsorbed secondary antibody (Invitrogen, #A21445) and incubated at 4° C. for an additional 30 minutes. […]
(§3) Cell-binding ability was determined in the same manner as in Example 12. For the six active substances primarily selected in Example 12, the isotype was changed to IgG4 or the LALAPG gene was mutated, and binding activity was determined in the two cell lines mentioned above.
(§4) Binding ability was determined in HH, an endogenous T cell line with high CD200R1 expression, and two additional overexpressing cell lines: U937-CD200R overexpressing cells, generated by intranuclear injection of human CD200R1 CDNA into the monocytic cell line U937 (CRL-1593.2) (Source: UMC Utrecht, the Netherlands) and Jurkat-CD200R overexpressing cells, were also cells engineered using a similar method.
(§5) All cell lines were maintained in RPMI 1640 medium supplemented with 10% heat-inactivated FBS and 1% penicillin/streptomycin (P/S) and cell binding was determined in the same manner as in Example 12. […]
(§6) Specific binding ability was determined using P001009 WT and antibody-optimized mutants, P001009v1, P001009v2, P001009v3, and P001009v4. […]

[2] = target: T2, CD200R1 on HH (CRL-2105) cells (Homo sapiens, UniProt Q8TD46); assay: Cell binding assay (flow cytometry), HH cells; format: cell-based
T2 construct: HH (CRL-2105) cells, which endogenously express CD200R1; host or cells: HH (CRL-2105) cells
T2 sequence (Q8TD46 25-348): T1 sequence (Q8TD46 25-348)
Procedure: as §1, §2, §3, §4, §5, §6

[3] = system: Dok2 phosphorylation in Jurkat-CD200R1 cells; assay: Dok2 protein phosphorylation, Jurkat-CD200R1 reporter cells (PathHunter); format: cell-based, human; conditions: for RLU: Jurkat-CD200R1 reporter cells, Fc capture antibody
Procedure: Jurkat-CD200R1 cells were maintained as shown in Example 17 and were then seeded in triplicate onto CulturePlate-384, a White Opaque 384-well microplate (PerkinElmer, #6007688) at a density of 8,000 cells/well (32 μl). AssayComplete Cell Plating 0 Reagent (DiscoverX, #93-0563ROA) was used for cell plating and antibody dilution. The seeded cells were incubated at 37° C. and 5% CO2 for 30 minutes.
During the reaction, an Fc capture antibody, anti-human IgG (Fc-specific) antibody produced in goat (Sigma Aldrich, #12136, 2.3 mg/ml), was diluted in AssayComplete media and incubated at 37° C., 5% CO2 for 30 minutes. After incubation of both the plate containing the cells and the Fc capture antibody, the cells were treated with the Fc capture antibody at a concentration of 50 μg/ml per well. The reaction was incubated for 3 hours at 37° C., 5% CO2. After cross-reactivity with the Fc capture antibody, the cells were treated with a total of three antibodies, as shown in Example 17. The cells were diluted two-fold from a maximum concentration of 50 nM to 25 nM, 12.5 nM, 6.25 nM, 3.12 nM, 1.56 nM, 0.78 nM, 0.39 nM, 0.20 nM, 0.098 nM, and 0.049 nM. After treatment, the result was reacted at room temperature for an additional 2 hours.
The PathHunter Detection kit (DiscoverX, #93-0001) was used to confirm the response of the treated antibodies to the Jurkat-CD200R1 reporter cell line. Final data were analyzed using an Infinite M200 Pro Plate reader (Tecan) to measure the luminescence from phosphorylated Dok2. […] luminescence unit (RLU) is an arbitrary unit representing luminescence, calculated by converting the signal detected by a cross-linked Fc capture antibody.

Molecule | cell binding ability, IgG4 or LALAPG mutants ([1]; Jurkat-CD200R1 cells) | cell binding ability, IgG4 or LALAPG mutants ([2]; HH cells) | luminescence due to phosphoDok2 [3] | RLU ([3]; antibody dose 0.05 nM) [a.u.] | RLU ([3]; antibody dose 0.10 nM) [a.u.] | RLU ([3]; antibody dose 0.20 nM) [a.u.] | RLU ([3]; antibody dose 0.39 nM) [a.u.] | RLU ([3]; antibody dose 0.78 nM) [a.u.] | RLU ([3]; antibody dose 1.56 nM) [a.u.] | RLU ([3]; antibody dose 3.13 nM) [a.u.] | RLU ([3]; antibody dose 6.25 nM) [a.u.] | RLU ([3]; antibody dose 12.5 nM) [a.u.] | RLU ([3]; antibody dose 25 nM) [a.u.] | RLU ([3]; antibody dose 50 nM) [a.u.] | binding ability to Jurkat-CD200R1 ([1]; serial dilution from 100 nM) | binding ability to HH cell line ([2]; serial dilution from 100 nM)
B1 | highest efficacy | highest efficacy | exhibited luminescence due to phosphoDok2 | 10432 ± 2166 | 10359 ± 1227 | 15184 ± 2826 | 10861 ± 917 | 25264 ± 1484 | 33140 ± 5780 | 41203 ± 4810 | 56115 ± 6866 | 57733 ± 6385 | 50858 ± 8029 | 37120 ± 14299 | – | –
B2 | – | – | exhibited luminescence due to phosphoDok2 | 9521 ± 1128 | 10677 ± 2258 | 17866 ± 1925 | 11340 ± 509 | 28644 ± 4755 | 32863 ± 4207 | 29729 ± 3825 | 48879 ± 1315 | 45830 ± 6990 | 53185 ± 13281 | 32676 ± 5379 | highest binding ability | exhibited binding ability
